Source: patent publication US20220089784A1 (University of California, published 2022)

T1: BoNT/C1 holotoxin (Clostridium botulinum, UniProt P18640 2-1291)
T1 sequence: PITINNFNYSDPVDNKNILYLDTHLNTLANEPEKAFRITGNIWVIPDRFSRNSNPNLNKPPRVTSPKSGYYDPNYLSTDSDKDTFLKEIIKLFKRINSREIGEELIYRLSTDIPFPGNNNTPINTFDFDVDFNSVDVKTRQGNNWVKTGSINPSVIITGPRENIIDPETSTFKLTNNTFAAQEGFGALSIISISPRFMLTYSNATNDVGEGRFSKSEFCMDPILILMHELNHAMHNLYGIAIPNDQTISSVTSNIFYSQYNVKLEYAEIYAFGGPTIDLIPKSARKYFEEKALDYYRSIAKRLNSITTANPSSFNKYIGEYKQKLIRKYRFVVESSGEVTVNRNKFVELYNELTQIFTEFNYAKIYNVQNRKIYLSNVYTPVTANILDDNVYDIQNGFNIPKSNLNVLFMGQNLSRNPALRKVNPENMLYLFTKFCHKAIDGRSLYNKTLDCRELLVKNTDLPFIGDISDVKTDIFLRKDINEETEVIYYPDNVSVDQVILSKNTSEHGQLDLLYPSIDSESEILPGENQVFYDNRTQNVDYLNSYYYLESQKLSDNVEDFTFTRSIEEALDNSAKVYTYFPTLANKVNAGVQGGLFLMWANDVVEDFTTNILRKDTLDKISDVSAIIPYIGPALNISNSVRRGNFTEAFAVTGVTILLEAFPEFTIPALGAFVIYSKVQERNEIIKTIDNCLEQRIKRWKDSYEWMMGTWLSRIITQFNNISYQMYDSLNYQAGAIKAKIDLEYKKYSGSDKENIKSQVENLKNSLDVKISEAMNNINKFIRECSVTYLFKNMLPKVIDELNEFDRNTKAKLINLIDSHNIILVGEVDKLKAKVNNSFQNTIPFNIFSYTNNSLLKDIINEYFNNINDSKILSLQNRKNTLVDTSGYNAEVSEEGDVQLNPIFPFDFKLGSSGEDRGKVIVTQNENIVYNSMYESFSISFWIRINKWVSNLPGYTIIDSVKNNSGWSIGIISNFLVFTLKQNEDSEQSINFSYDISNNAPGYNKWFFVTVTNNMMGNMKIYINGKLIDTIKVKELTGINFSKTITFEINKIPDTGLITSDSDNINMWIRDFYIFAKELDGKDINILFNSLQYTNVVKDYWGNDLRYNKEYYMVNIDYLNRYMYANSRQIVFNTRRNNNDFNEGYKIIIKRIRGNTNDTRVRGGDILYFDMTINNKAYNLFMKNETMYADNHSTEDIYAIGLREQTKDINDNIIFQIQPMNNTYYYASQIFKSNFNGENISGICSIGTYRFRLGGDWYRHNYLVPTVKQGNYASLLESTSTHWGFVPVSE

T2: BoNT/D (Clostridium botulinum, UniProt P19321 2-1276)
T2 sequence: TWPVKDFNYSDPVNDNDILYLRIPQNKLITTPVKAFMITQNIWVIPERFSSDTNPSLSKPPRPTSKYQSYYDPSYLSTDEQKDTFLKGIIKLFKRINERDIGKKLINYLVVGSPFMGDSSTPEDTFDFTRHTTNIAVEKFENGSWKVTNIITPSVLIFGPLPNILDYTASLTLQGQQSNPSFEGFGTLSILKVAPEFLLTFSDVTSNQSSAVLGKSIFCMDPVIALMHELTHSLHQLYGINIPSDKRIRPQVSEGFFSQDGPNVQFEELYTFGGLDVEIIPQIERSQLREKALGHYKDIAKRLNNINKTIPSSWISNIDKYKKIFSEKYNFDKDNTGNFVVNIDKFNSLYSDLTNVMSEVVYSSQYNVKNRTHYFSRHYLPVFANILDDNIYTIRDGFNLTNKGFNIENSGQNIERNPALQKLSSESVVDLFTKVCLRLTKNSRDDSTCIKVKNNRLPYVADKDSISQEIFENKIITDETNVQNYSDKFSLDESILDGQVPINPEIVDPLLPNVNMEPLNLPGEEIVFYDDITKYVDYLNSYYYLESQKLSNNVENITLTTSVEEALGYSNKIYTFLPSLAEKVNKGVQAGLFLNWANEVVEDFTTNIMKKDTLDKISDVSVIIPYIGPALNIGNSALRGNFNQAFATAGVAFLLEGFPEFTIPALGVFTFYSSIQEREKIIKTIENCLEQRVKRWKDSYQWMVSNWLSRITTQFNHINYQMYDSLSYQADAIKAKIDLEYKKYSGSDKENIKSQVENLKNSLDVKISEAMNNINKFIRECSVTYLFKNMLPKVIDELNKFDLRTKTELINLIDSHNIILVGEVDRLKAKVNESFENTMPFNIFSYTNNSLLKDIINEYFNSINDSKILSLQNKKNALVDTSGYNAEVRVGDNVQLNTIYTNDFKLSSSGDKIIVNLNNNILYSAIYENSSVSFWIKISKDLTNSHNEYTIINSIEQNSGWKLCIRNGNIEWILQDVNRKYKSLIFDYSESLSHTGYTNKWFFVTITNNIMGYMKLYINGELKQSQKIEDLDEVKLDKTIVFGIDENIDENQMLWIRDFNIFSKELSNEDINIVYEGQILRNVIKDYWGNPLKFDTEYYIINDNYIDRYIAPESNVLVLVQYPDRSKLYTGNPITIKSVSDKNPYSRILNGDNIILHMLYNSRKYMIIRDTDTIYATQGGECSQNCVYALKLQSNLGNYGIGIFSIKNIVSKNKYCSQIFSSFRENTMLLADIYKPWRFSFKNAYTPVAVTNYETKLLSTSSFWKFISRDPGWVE

B1: 8DC13 scFv (scFv, V domains shown)
VH: QVQLVQSGAEVKKPGASVKVSCKASGYTFTGYYIHWVRQAPGQGLEWMGRINPNSGGANYAHKFQGRVTMTRDTSSNTAYMEVSRLKSDDTAVYYCARRRAVANLDYHYYGMDVWGQGTTVTVSS
VL: DIVMTQSPSTLSASVGARVTITCRASQNINTYLNWYHQKPGKAPKLLIYAASSLQSGVPSRFSGSGSGTDFTLTISSLQPEDFATYYCQQSYSTPHTFGGGTKLEIK
notes: human
B2: 8DC8.6 scFv (scFv, V domains shown)
VH: QVQLQQSGPGLVKPSETLSLTCTVSGGSISSAGYSWSWIRQSPGKGLECLGYIYQTGSTFYNLSLKGRVTMSLDRSKNQISLRLTSVVAADTAVYYCARVVGVYPGWFDSWGQGTLVTVSS
VL: DIQMTQSPSSLSASVGDRVTITCRASQGVSTDLAWYQQKPGRAPKLLIYRASSLQSGVPSRFSGSGSGTDFTLTISSLQPDDLATYYCQHYESYSPWTFGQGTQGEIK
notes: human
B3: 8DC12 scFv (scFv, V domains shown)
VH: QVQLVQSGGGVVQPGRSLRLSCAASGFTFSSYGMHWVRQAPGKGLEWVAAISYDGSNKYYADSVKGRFTISRDNSKNTLYLQMNSLRAEDTAVYYCAKGEHFVVVTAFATWGQGTLVTVSS
VL: DIVMTQSPSFLSASIGDRVTITCRASQSISNWLAWYQQKPGKAPKVLVYKASSLENGVPSRFSGSGSGTDFTLTITSLQPDDFATYYCQQYNAYPLTFGGGTKVEIK
notes: human
B4: 8DC7 scFv (scFv, V domains shown)
VH: QVQLVQSGGRLVRPGGSLRLSCAASGFVFSNYGMHWVRQAPGKGLEWVAFLTHGGTNKYYSDSVKGRLTISRDNAKSTLFLEVNSLRVEDTAIYYCVKEGQLDSKYYFDSWGQGTLVTVSS
VL: EIVLTQSPSSLSASVGDRVTITCRASQSISSYLAWYQQKPGKAPELLIYAASTLQSGVPSRFSGSGSGTDFTLTISSVQPEDFATYYCQQSYSTPFTFGQGTKVEIK
notes: human
B5: 8DC14 scFv (scFv, V domains shown)
VH: QVQLVQSGGGVVQPGRSLRLSCVASGFTFSSYTMHWVRQAPGEGLEWVAGISNDGRNQYYSDSVKGRATISRDNSKDTLYLQMHSLRAEDTAVYYCAKANYHFILATTFHSWGQGTLVTVSS
VL: DIVMTQSPSSVSASVGDRVTITCRASQGISSWLAWYQQKPGKAPKLLIYAASSLQSGVPSRFSGSGSGTDFTLTISRLQPEDVATYYCQRYNSLPFTFGGGTKLEIK
notes: human
B6: 8DC10 scFv (scFv, V domains shown)
VH: QVQLVQSGAEAKKPGASVKLSCQASGYTFTGYAIHWVRQAPGQRLEWLGWINCVNGNTKYSPKLPGRVTITRDTSATTAYLELNSLTSEDTAVYYCARSMLVAARVYYYYGMDVWGQGTMVTVSS
VL: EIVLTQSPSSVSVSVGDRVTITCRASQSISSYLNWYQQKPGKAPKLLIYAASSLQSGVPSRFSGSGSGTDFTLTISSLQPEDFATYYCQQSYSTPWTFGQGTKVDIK
notes: human
B7: 8DC11 scFv (scFv, V domains shown)
VH: QVQLVESGPGLVKPSQTLSLSCTVSGGSVNHYYWNWIRQPPGKGLEWIGYIFYNGRTNYNPSLKSRVTMSVDTSKNQISLKLRSVTAADTAVYYCAREGARGYCSSTSCHDAFDIWGRGTLVTVSS
VL: EIVLTQSPSFLSASVGDRVTITCRASQGIRNDLAWFQQKPGKAPKLLIYATSTLQSGVPSRFSGSGSGTDFTLTISSLQPEDFADYYCQQAASFPLTFGGGTKVDIK
notes: human

Columns and labels:
BoNT/C1 holotoxin = molecular target: T1, BoNT/C1 holotoxin; test: yeast scFv FACS
BoNT/D = molecular target: T2, BoNT/D; test: yeast scFv FACS

| Binder | binding result (BoNT/C1 holotoxin) | binding result (BoNT/D) |
| --- | --- | --- |
| B1 | no binding (tested: ~1 µM) | binds |
| B2 | no binding (tested: ~1 µM) | binds |
| B3 | no binding (tested: ~1 µM) | binds |
| B4 | no binding (tested: ~1 µM) | binds |
| B5 | no binding (tested: ~1 µM) | binds |
| B6 | no binding (tested: ~1 µM) | binds |
| B7 | no binding (tested: ~1 µM) | binds |
